Reference: patent US20160289698A1 (TRUSTEES OF DARTMOUTH COLLEGE, published 2016)

T1: ARR2 (Arabidopsis, UniProt Q9ZWJ9 1-664, limits assumed)
T1 construct: also called type-B response regulator ARR2
T1 sequence (looked up): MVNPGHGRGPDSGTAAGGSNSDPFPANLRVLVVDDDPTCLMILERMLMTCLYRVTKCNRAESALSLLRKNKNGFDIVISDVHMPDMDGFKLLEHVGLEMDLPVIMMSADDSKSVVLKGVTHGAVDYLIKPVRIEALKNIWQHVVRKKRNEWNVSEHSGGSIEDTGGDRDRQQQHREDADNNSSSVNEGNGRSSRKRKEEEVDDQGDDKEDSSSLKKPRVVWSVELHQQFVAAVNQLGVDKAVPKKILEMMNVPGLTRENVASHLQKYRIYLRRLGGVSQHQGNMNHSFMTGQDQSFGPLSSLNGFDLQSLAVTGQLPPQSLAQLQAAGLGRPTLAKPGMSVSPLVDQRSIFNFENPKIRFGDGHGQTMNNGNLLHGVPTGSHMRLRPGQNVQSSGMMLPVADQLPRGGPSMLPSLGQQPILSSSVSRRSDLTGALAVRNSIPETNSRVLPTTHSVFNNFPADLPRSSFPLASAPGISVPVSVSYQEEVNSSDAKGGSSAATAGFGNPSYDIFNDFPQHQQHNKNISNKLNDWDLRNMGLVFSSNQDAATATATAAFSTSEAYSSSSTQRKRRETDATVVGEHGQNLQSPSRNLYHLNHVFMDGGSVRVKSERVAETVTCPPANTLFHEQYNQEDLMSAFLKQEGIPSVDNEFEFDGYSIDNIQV

T2: ARR19 (subfamily-2) (Arabidopsis, UniProt Q9M9B9 1-407, limits assumed)
T2 sequence (looked up): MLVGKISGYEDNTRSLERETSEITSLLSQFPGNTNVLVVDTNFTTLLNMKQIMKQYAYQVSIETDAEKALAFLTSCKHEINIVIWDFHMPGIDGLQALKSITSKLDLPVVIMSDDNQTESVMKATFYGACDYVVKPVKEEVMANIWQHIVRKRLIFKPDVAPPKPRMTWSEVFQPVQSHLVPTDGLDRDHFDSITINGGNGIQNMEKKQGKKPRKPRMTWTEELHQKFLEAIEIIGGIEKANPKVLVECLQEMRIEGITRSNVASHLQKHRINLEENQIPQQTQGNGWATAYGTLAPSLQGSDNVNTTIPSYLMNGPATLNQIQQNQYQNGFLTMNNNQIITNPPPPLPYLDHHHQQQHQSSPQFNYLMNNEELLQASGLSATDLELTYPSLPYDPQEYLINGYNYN

T3: ARR21 (subfamily-3) (Arabidopsis, UniProt Q9LYP5 1-613, limits assumed)
T3 sequence (looked up): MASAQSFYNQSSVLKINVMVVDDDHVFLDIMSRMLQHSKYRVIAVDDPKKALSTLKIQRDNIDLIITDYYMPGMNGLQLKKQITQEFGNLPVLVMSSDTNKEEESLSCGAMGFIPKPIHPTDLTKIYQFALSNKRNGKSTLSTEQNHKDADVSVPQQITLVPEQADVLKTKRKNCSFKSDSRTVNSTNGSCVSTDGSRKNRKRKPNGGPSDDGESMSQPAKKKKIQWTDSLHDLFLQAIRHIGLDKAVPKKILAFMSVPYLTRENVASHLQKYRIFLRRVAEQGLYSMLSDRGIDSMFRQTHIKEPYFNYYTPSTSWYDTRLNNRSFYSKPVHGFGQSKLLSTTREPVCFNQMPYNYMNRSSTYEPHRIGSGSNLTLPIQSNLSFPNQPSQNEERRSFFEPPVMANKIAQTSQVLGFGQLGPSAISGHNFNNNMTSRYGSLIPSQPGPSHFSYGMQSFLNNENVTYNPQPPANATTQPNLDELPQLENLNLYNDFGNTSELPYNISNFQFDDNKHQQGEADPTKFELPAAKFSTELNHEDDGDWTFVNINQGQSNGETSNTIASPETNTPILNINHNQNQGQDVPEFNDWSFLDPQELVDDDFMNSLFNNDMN

T4: ARR20 (type-B ARR subfamily-3) (Arabidopsis, UniProt Q9LZJ8 1-426, limits assumed)
T4 sequence (looked up): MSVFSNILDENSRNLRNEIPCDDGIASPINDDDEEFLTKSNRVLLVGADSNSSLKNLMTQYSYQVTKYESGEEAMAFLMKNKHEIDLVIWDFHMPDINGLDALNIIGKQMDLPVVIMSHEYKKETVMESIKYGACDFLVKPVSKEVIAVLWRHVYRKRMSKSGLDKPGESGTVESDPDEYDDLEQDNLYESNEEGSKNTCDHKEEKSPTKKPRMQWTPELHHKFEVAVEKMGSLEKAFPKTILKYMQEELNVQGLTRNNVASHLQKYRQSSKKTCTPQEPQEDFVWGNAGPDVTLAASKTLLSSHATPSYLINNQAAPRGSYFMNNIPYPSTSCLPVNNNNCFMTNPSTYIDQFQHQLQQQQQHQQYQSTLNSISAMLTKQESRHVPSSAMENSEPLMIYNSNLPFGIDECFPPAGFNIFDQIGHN


Tests used:
Experiment in all cases: yeast two-hybrid (LexA-KMD bait, B42-ARR prey, X-gal)
ARR2 = molecular target: T1, ARR2
Text: (§1) The DUPLEX-A™ system (OriGene Technologies) was used for yeast two-hybrid analysis of interactions. KMD cDNAs were cloned into the pGilda bait vector, which produces an in-frame fusion with the LexA DNA-binding domain. Type-B ARR coding sequences were cloned into the pJG4-5 prey vector, which produces a B42 activation domain. The yeast strain EGY48 (MATa, trp1, his3, ura3, leu2::6 LexAop-LEU2) that contains the lacZ reporter plasmid pSH18-34 was transformed with the appropriate “bait” and “prey” plasmids. Interactions were tested on 5-bromo-4-chloro-3-indolyl-p-D-galactopyranoside (X-gal) medium (Ryu, et al. (2005) Cell 120(3): 395-406).
(§2) The KMD proteins also interacted with ARR20 (type-B ARR subfamily-3), but not with ARR19 (subfamily-2) and ARR21 (subfamily-3). […] All four KMD proteins interacted with both ARR1 and ARR12 in a BiFC assay. Strong fluorescence was detected in the nuclei of cells, consistent with the subcellular localization of the type-B ARRs (Hwang & Sheen J (2001) Nature 413(6854):383-389; Mason, et al. (2004) Plant Physiol. 135(2):927-937).

ARR19 (subfamily-2) = molecular target: T2, ARR19 (subfamily-2)
Text: as §1, §2

ARR21 (subfamily-3) = molecular target: T3, ARR21 (subfamily-3)
Text: as §1, §2

[1] = molecular target: T4, ARR20 (type-B ARR subfamily-3)
Text: as §1, §2

| binding result (ARR2) | binding result (ARR19 (subfamily-2)) | binding result (ARR21 (subfamily-3)) | binding result [1] | Binder |
| --- | --- | --- | --- | --- |
| binds | no binding | no binding | binds | KISS ME DEADLY 2 (KMD2) (other, Arabidopsis, UniProt Q9LMR5 1-359, looked up, Full-length protein; LexA fusion in yeast two-hybrid, YFP^N or YFP^C fusion in BiFC; also called At1g15670) MELIPDLPETVAYECLLRSSYKQFPLMASVCKLWQREISLSDFFRHRKASGHSQELVVLSQARVDPVKELVSGNKTIPTPVYRISVLELGTGLRSELPPVPGHSNGLPLFCRLVSVGSDLVVLCGLDPVTWRTSDSVFVFSFLTSTWRVGKSMPGGPRSFFACASDSQRNVFVAGGHDEDKNAMMSALVYDVAEDRWAFLPDMGRERDECTAIFHAGKFHVIGGYSTEEQGQFSKTAESFDVTTWRWSPQGEEFLSSEMTMWPPICAAGENGDLYACCRRDLMMMKDDTWYKVGNLPADVCNVSYVAIRRSGNLVVIGSARYGEPSVGYNWDMSNSRWLKLETHDKYEGHVQAGCFLEI |
| binds | no binding | no binding | binds | KISS ME DEADLY 1 (KMD1) (other, Arabidopsis, UniProt Q9M8L2 1-354, looked up, Full-length protein; also called At1g80440) MELIPNLPDDVARECLLRSSYQQFPVIASVCRAWNREVSLSQFLHQRKASRHSQELLILSQARVDPAGSGKIIATPEYRISVLESGSGLWTELPPIPGQTKGLPLFCRLVSVGSDLIVLGGLDPITWQAHDSVFVFSFLTSKWRVGATMPGVRRSFFGCASDSDRTVLVAGGHNEEKCALTSAMVYDVSEDKWTFLPDMARERDECKAVFHAGRFHVIGGYATEEQGQFSKTAESFDVSTWEWGPLTEDFLDDTGDTVSPPTCVAGGDLYACWGGDVMMFLNDKWQKVGQIPADVYNVTYVAVRPGMLIVIGNGKALAGYGEATVGYICDLSSSRWVKLETHGGHVQAGCFLEV |
